From paper PMC3827151, “Methionine Mutations of Outer Membrane Protein X Influence Structural Stability and Beta-Barrel Unfolding” (PLoS ONE, 2013) come the findings set out here.

This data set concerns the molecule itself. Description: SDS-PAGE of unboiled samples (gel mobility shift); protein in 8 M urea diluted 20-fold into LDAO, DPC, 60PC or DMPC in 20 mM Tris-HCl pH 9.5, slow folding at 40°C for 3 h; samples not centrifuged; bands of folded and unfolded monomer and dimer.

B1: Outer membrane protein X H100N (OmpX^HN) (natural protein, E. coli, UniProt P0A917 24-171, looked up)
chain: ATSTVTGGYAQSDAQGQMNKMGGFNLKYRYEEDNSPLGVIGSFTYTEKSRTASSGDYNKNQYYGITAGPAYRINDWASIYGVVGVGYGKFQTTEYPTYKNDTSDYGFSYGAGLQFNPMENVALDFSYEQSRIRSVDVGTWIAGVGYRF
notes: also called OmpX H100N
Regarding B1, the binding result is on record as “binds”.

B2: Outer membrane protein X H100N:M18L:M21L:M118L quadruple mutant (OmpX^M) (natural protein, E. coli, UniProt P0A917 24-171, looked up)
chain: ATSTVTGGYAQSDAQGQLNKLGGFNLKYRYEEDNSPLGVIGSFTYTEKSRTASSGDYNKNQYYGITAGPAYRINDWASIYGVVGVGYGKFQTTEYPTYKNDTSDYGFSYGAGLQFNPLENVALDFSYEQSRIRSVDVGTWIAGVGYRF
notes: the 'initiator' Met is kept; PDB 1QJ8 is the parent OmpX^HN; also called Met-less construct
As to B2, the binding result was “binds”.
